Measured values taken from paper PMC9765439, “Systems-Wide Dissection of Organic Acid Assimilation in Pseudomonas aeruginosa Reveals a Novel Path To Underground Metabolism” (mBio, 2022).

How the values were obtained:
[1] = target: the molecule itself; experiment: crystal structure; GltA apo, 20 to 25 mg/mL, sitting drop vapor diffusion, 19°C
[2] = target: the molecule itself; experiment: crystal structure; PrpC apo and oxaloacetate-bound (2.5 mM oxaloacetate) crystals; sitting drop, 100 to 200 mM Bis-Tris pH 5.5, 20 to 30% PEG 3350, 0.1% D-xylose, 19°C

B1: citrate synthase GltA from Pseudomonas aeruginosa (enzyme, UniProt P14165 1-428, looked up)
chain: MADKKAQLIIEGSAPVELPVLSGTMGPDVVDVRGLTATGHFTFDPGFMSTASCESKITYIDGDKGVLLHRGYPIEQLAEKSDYLETCYLLLNGELPTAAQKEQFVGTIKNHTMVHEQLKTFFNGFRRDAHPMAVMCGVIGALSAFYHDSLDINNPKHREVSAHRLIAKMPTIAAMVYKYSKGEPMMYPRNDLNYAENFLHMMFNTPCETKPISPVLAKAMDRIFILHADHEQNASTSTVRLAGSSGANPFACIASGIAALWGPAHGGANEAVLRMLDEIGDVSNIDKFVEKAKDKNDPFKLMGFGHRVYKNFDPRAKVMKQTCDEVLQELGINDPQLELAMKLEEIARHDPYFVERNLYPNVDFYSGIILKAIGIPTSMFTVIFALARTVGWISHWQEMLSGPYKIGRPRQLYTGHTQRDFTALKDRG
notes: citrate synthase GltA of Pseudomonas aeruginosa; PCR-amplified ORF of gltA cloned into pET-19m; printed length 429 amino acids; The hexamer is that of the crystal's asymmetric unit; also called GltAPa; citrate (CIT) synthase; source: E. coli, purified (Ni-NTA, His6 tag cleaved with TEV protease); not shown: His6, N-terminal, cleaved
- stoichiometry N [1]: 6

B2: 2-methylcitrate synthase PrpC from Pseudomonas aeruginosa (enzyme)
chain: MAEAKVLSGAGLRGQVAGQTALSTVGQEGAGLTYRGYDVRDLAAAAIFEEVAYLLLYGELPNKQQLDAYLKKLQGQRDLPQALKEVLERIPKDAHPMDVMRTGASVLGTLEPELSFDQQRDVADRLLAAFPAIMTYWYRFTHEGQRIDCNSDEPTIGGHFLALLHGKKPSELHVKVMNVSLILYAEHEFNASTFTARVCASTLSDLYSCVTGAIGSLRGPLHGGANEAAMELIERFSSPQEATAELLKMLERKDKIMGFGHAIYKDSDPRNEVIKGWSKQLADEVGDKVLFAVSEAIDKTMWEQKKLFPNADFYHASAYHFMGIPTKLFTPIFVCSRTSGWTAHVFEQRANNRIIRPSAEYTGVEQRAFVPLEQR
notes: 2-methylcitrate synthase PrpC of Pseudomonas aeruginosa; PCR-amplified ORF of prpC cloned into pET-19m; printed length 376 amino acids, theoretical monomer mass 41.7 kDa; also called PrpCPa; 2-MCS; source: E. coli, purified (Ni-NTA, His6 tag cleaved with TEV protease); not shown: His6, N-terminal, cleaved
- stoichiometry N [2]: 2
